Target: Cy3-APE1 (human) (UniProt P27695)
Assay: FRET titration
Details: N1 = tetrahydrofuran (THF), EMSA: 2 uM protein and DNA, 20 mM potassium phosphate pH 7.0, 50 mM NaCl, 5 mM MgCl2, 2 mM DTT, 0.01% Tween-20, 30 min room temperature, gel at 4 °C

Sequence of UniProt P27695 (P27695 whole entry): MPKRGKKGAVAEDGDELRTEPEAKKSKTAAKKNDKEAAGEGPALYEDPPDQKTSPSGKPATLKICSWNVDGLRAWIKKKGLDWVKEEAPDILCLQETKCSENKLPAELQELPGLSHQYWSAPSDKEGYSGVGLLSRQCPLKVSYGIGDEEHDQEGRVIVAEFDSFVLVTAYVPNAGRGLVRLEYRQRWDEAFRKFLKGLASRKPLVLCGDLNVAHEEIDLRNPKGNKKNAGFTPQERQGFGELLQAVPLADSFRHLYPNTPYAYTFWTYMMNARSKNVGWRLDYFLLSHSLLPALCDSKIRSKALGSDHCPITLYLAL

“NCGGTCGATCGTAAGATCGACCGTGCGCTGGAGCTTGCTCCAGCGC [Cy5-P (Cy5-labelled product)]” gave a Kd of 5 nM.

From article PMC9324194
